Assay results published in US20080261267A1, “Cellulases from Rumen” (priority 2004, published 2008).

Columns and labels:
Format in all cases: biochemical
[1] = TLC analysis of hydrolysis products; settings: pH 5.6, 50° C.
Source text: FIG. 7 depicts the result of thin layer chromatography TLC analysis of products of CMC hydrolyzed by endoglucanases derived from a rumial genomic DNA library. The methods used for cellulase and substrate preparation, hydrolysis, TLC, and visualization are described in Example 5. The hydrolysis products glucose, cellobiose, cellotriose are shown an the right side. […] Different pattern was found when using short-chain beta-1,4-glucans.
The products formed by hydrolysis of cellulose-based substrates (cellobiose, cellotetraose, cellopentaose, cellulose and carboxymethyl cellulose) were analysed by thin-layer chromatography (TLC). Solutions containing 20 μg of E. coli cell lysate proteins and 0.2% (wt/vol) substrate in 50 mM acetate buffer (pH 5.6) were incubated at 50° C. until maximum conversion was achieved. The reactions were terminated by heating the preparation for 5 min at 95° C. and hydrolysis products were separated by TLC on silica gel plates (Merck, Darmstadt, Germany) by using a mixture chloroform, glacial acetic acid, and water (6:14:1) as the solvent. […] Sugars were visualized by heating 105° C. for 15 min the plates which were previously sprayed with a reagent containing amine (2 ml), diphenylamine (2 g), acetone (100 ml) and 85% H3PO4 (15 ml).

[2] = Cation dependence; settings: 10 to 100 mM
Description: FIG. 3 represents Table 3 giving an overview over the biochemical properties of the cellulases according to the invention. Reaction was performed at the optimum pH and temperature for each done using CMC as substrate. […] The values for clones pBKRR.1, 9, 11, 13, 14, 16 and 22 are depicted. For each clone the following data are given: • maximum pH at which the remaining activity after 24 h incubation at the indicate pH is >90% (column “Stable at pH”). […] Activity was measured after 2 h incubation and compared with a control reaction in buffer lacking dimethylsulfoxide, • detergent resistance given by the remaining activity in the corresponding buffer (optimum pH) containing the indicate detergent at a concentration for 0 to 3%. […] The effect of mono- (Na^+, K^+, NH4^+, and divalent cations (Ca^2+, Mn^2+, Mg^2+, Sr^2+, Fe^2+, Cu^2+, Ni^2+, Co^2+, Zn^2+) was first examined by treating the enzyme with chelating agents (EDTA and EGTA) to remove any endogenous divalent cations, followed by adding cations to the reaction mixture.
[…] Inhibitors such as N-ethylmalemide, iodoacetate and p-chloromercuribenzoate at concentration from 1-5 mM were incubated in the presence of the enzyme for 30 min (30° C.) prior to the addition of the substrate (CMC). The effects of detergents on the endoglucanase activity was analysed by adding of 1-3% (wt/vol) detergent to the enzyme solution. In all cases, the enzyme activity was assayed in triplicate using the standard cellulose assay described above and the residual activity was expressed as percent of the control value (without addition of chemicals).

[3] = pH-dependent activity and pH stability; settings: cell lysates; CMC; pH 3.5 to 10.5 at 40° C.
Description: (§1) FIG. 3 represents Table 3 giving an overview over the biochemical properties of the cellulases according to the invention. Reaction was performed at the optimum pH and temperature for each done using CMC as substrate. […] The values for clones pBKRR.1, 9, 11, 13, 14, 16 and 22 are depicted. For each clone the following data are given: • maximum pH at which the remaining activity after 24 h incubation at the indicate pH is >90% (column “Stable at pH”). […] Activity was measured after 2 h incubation and compared with a control reaction in buffer lacking dimethylsulfoxide, • detergent resistance given by the remaining activity in the corresponding buffer (optimum pH) containing the indicate detergent at a concentration for 0 to 3%. […]
(§2) FIG. 4 a-c represent the results of the determination of pH and temperature optima showing graphically views of the pH-dependence activity and temperature-dependence activity of the polypeptides according to the invention. The pH optima of rumial endoglucanases were measured under conditions described in Example 5: 4% CMC, 0.5 mL of 50 mM buffer at the corresponding pH and 0.1 mg E. coli cell lysates, for 5-30 min, at 40° C. Effect of temperature on endoglucanase activity was measured in 50 mM sodium acetate buffer pH 5.6. […]

[4] = Thermal activity and thermostability; settings: at the pH optima; CMC
Description: as §1, §2

[5] = Specific activity of purified endoglucanases; settings: purified to homogeneity; pH 5.6 and 50° C.; CMC as substrate
Description: FIG. 2 represents Table 2 which contains the data obtained by purification of endoglucanases of seven clones (pBKRR.1, 9, 11, 13, 14, 16 and 22) with respect to the specific activity. […] They were purified to homogeneity and their specific activity was estimated at pH 5.6 and 50° C., using CMC as substrate.
The endoglucanases were recovered from 1-liter shaked flask fermentations, in Luria-Bertany broth plus 50 μg of Kanamycin per ml. One gram of fermentation broth was mixed with 10 ml of standard buffer in a 50-ml Falcon tube. The solution was vortexed and then incubated with DNase I grade II, for 30-45 min, and then sonicated for 4 min total time. A sample of the soluble fraction was separated from insoluble debris by centrifugation (10,000×g, 30 min, 4° C.) and proteins were precipitated by addition of 80% chilled acetone (−20° C.). Proteins were resuspended in standard buffer and stored at −20° C. at a concentration of 5 mg/ml until use. The amount of protein expression was examined using SDS-PAGE with 10-12% acrylamide. […] The gel region containing the active cellulase, detected in a parallel track by activity staining (using Ostazin brillian-blue carboxymethyl cellulose) was excised, suspended in two volumes of standard fuffer and homogenized in a glass tissue homogenizer. […]
The standard cellulase activity was determined in a continuous spectrophotometric assay by measuring the release of reducing sugars from the 4% (wt/vol carboxymethyl cellulose (CMC) in 0.5-ml reaction mixtures containing 50 mM sodium acetate buffer, pH 5.6, at 40° C., using the dinitrosalycilic acid (DNS) method (Bernfeld, P. (1955) Amilases and b. In: Colowick S P, Kaplan N O (eds). Methods in Enzymology, Academic Press, New York pp. 133-155). The reaction was performed in 0.5 ml scale containing 20 mg substrate and 5 mg lyophilised cells or 0.1 mg purified enzyme. Reactions were allow to proceed for a time period of 5-30 min after which the samples were centrifuge (10,000×g, 3 min). […] Finally, each well was diluted with 150 μl water and the absorbance at 550 nm was measured. […]

B1: pBKRR.11: rumen endo-beta-1,4-glucanase, sequences FIG. 14/22 (protein)
chain: MRILKLFFIALITAAPIFSYAQTVDDMKSVFVDAHTWTASIKMGWNLGNALECQTGWNDKAFCWNPANNFNAETSWGNPKTTKEMLQAVREAGFDAVRIPVNWGAHISDESTCTIDAAWMNRVQEVVDWALQLGFKVLLNTHHEYWLEWHPTYDREQANNNKLAKIWMQVANRFKDYGPDLAFAGINEVHLDGKWNVPTEENTAVTNSYNQTFVNTVRATGGNNLYRNLVVQCYSCNPDYGLTGFVVPADKVENRLSIEYHYYRPWDYAGDAPKYYYWGEAYKQYGEVSTADNEAKVNADFARYKAAWYDKGLGVIMGEWGASQHYQVESKAKQLENLYYHFKTVREAAQKNNIATFVWDNNACGNGGDKFGIFDRNDNMSVAFPEALNAIQEASGQTVVDYSRQALQPSVVYQGDELMNWGEGKQLIIAGSKFAYFTAESKLMVTLDAEPGADYDMLQFAYGDWKSKPLMIISGRSYKGQVEPSKINGSRNTYTLFIGFKESSLNQLKDKGITLQGHGLRLRNVVVMPEGLVLGL
modifications: Description of sequence sequence derived from genomic DNA library from rumen ecosystem, particularly amino acid sequence of clones pBKRR 11, 10 and 12; RR10=RR11=RR12; (see Figure 22)
[1]
  main hydrolysis products of CMC: cellobiose and cellotriose
[2]; chloride salt
  stimulatory effect of Mg^2+: 127%
[2]; chloride salts, after EDTA and EGTA treatment
  influence of mono- and divalent cations on activity: not influenced
[3]
  pH of highest (maximal) activity: 4.5 pH
[4]
  temperature of improved activity and thermostability: 50 °C
[5]
  specific activity: 6.42 µmol/min/mg
